Data reported in patent publication US20110274702A1.

Key:
Experiment in all cases: ELISA on coated HA
[1] = molecular target: H10N4 A/mink/Sweded/3900/84 HA protein (influenza A virus H10N4 A/mink/Sweded/3900/84)
[2] = molecular target: H5N1 A/Viet Nam/1/05 HA protein (influenza A virus H5N1 A/Viet Nam/1/05)
[3] = molecular target: B/Ohio/1/05 HA protein (influenza B virus B/Ohio/1/05)
[4] = molecular target: H6N5 A/shearwater/Australia/1/72 HA protein (influenza A virus H6N5 A/shearwater/Australia/1/72)
[5] = molecular target: H3N2 A/Brisbane/10/07 HA protein (influenza A virus H3N2 A/Brisbane/10/07)
[6] = molecular target: H7N3 A/Canada/444/04 HA protein (influenza A virus H7N3 A/Canada/444/04)
[7] = molecular target: H4N6 A/duck/Czechoslovakia/56 HA protein (influenza A virus H4N6 A/duck/Czechoslovakia/56) (UniProt P19696)
[8] = molecular target: H3N2 A/Wyoming/3/03 HA protein (influenza A virus H3N2 A/Wyoming/3/03)
[9] = molecular target: H1N1 A/Brisbane/59/07 HA protein (influenza A virus H1N1 A/Brisbane/59/07)
[10] = molecular target: H5N1 A/Viet Nam/1203/04 HA protein (influenza A virus H5N1 A/Viet Nam/1203/04)
[11] = molecular target: H7N7 A/Netherlands/219/03 HA protein (influenza A virus H7N7 A/Netherlands/219/03)
[12] = molecular target: H3N2 A/New York/55/04 HA protein (influenza A virus H3N2 A/New York/55/04)
[13] = molecular target: H8N4 A/Alberta/357/84 HA protein (influenza A virus H8N4 A/Alberta/357/84)
[14] = molecular target: H9N2 A/Hong Kong/1073/99 HA protein (influenza A virus H9N2 A/Hong Kong/1073/99)

Measured: EC50

ctr (antibody)
> 20 µg/mL: all assays above
